Measurements published in the supplement of paper PMC10567573.

B1: STEAP1 (parent)
chain: LWKMKPRRNLEEDDYLHKDTGETS

Variants of: B1
Experiment: protein stability index of a GFP-peptide fusion (GPS, HEK-293T) (PSI 1-6); higher = more stable
Conditions: c terminus: a fixed tail appended
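Further: lentivirally expressed fusions sorted by FACS into six bins by GFP to DsRed ratio, PSI derived from sequencing read proportions per bin multiplied by bin number.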

Variant | protein stability index
LWKMKPRRNLGEDDYLHKDTGETS | 3.93
LWKMKPRRNLNEDDYLHKDTGETS | 3.83
LWKMKPRRNLDEDDYLHKDTGETS | 4
LWKMKPRRNLLEDDYLHKDTGETS | 3.88
LWKMKPRRNLREDDYLHKDTGETS | 4.04
LWKMKPRRNLIEDDYLHKDTGETS | 3.82
LWKMKPRRNLFEDDYLHKDTGETS | 3.61
LWKMKPRRNLKEDDYLHKDTGETS | 4.58
LWKMKPRRNLPEDDYLHKDTGETS | 4.2
LWKMKPRRNLQEDDYLHKDTGETS | 4.12
LWKMKPRRNLHEDDYLHKDTGETS | 4.26
LWKMKPRRNLMEDDYLHKDTGETS | 3.96
LWKMKPRRNLAEDDYLHKDTGETS | 3.89
LWKMKPRRNLCEDDYLHKDTGETS | 3.79
LWKMYPRRNLEEDDYLHKDTGETS | 3.9
LWKMNPRRNLEEDDYLHKDTGETS | 4.32
LWKMFPRRNLEEDDYLHKDTGETS | 2.77
LWKMSPRRNLEEDDYLHKDTGETS | 5.01
LWKMDPRRNLEEDDYLHKDTGETS | 4.8
LWKMWPRRNLEEDDYLHKDTGETS | 2.86
LWKMVPRRNLEEDDYLHKDTGETS | 3.94
LWKMQPRRNLEEDDYLHKDTGETS | 4.86
LWKMIPRRNLEEDDYLHKDTGETS | 3.36
LWKMHPRRNLEEDDYLHKDTGETS | 4.4

Variant | protein stability index
LWKMCPRRNLEEDDYLHKDTGETS | 4.45
LWKMLPRRNLEEDDYLHKDTGETS | 3.98
LWKMMPRRNLEEDDYLHKDTGETS | 4
LWKMGPRRNLEEDDYLHKDTGETS | 4.5
LWKMEPRRNLEEDDYLHKDTGETS | 4.74
LWKMPPRRNLEEDDYLHKDTGETS | 4.91
LWKMRPRRNLEEDDYLHKDTGETS | 4.11
LWKMTPRRNLEEDDYLHKDTGETS | 4.56
LWKMAPRRNLEEDDYLHKDTGETS | 3.93
LWYMKPRRNLEEDDYLHKDTGETS | 3.81
LWPMKPRRNLEEDDYLHKDTGETS | 4.72
LWFMKPRRNLEEDDYLHKDTGETS | 3.31
LWDMKPRRNLEEDDYLHKDTGETS | 5.06
LWAMKPRRNLEEDDYLHKDTGETS | 4.19
LWEMKPRRNLEEDDYLHKDTGETS | 5.19
LWGMKPRRNLEEDDYLHKDTGETS | 4.22
LWCMKPRRNLEEDDYLHKDTGETS | 3.49
LWSMKPRRNLEEDDYLHKDTGETS | 4.51
LWQMKPRRNLEEDDYLHKDTGETS | 4.88
LWTMKPRRNLEEDDYLHKDTGETS | 4.36
LWIMKPRRNLEEDDYLHKDTGETS | 2.86
LWRMKPRRNLEEDDYLHKDTGETS | 4.28
LWVMKPRRNLEEDDYLHKDTGETS | 3.67
LWLMKPRRNLEEDDYLHKDTGETS | 3.81

Variant | protein stability index
LWWMKPRRNLEEDDYLHKDTGETS | 3.27
LWMMKPRRNLEEDDYLHKDTGETS | 4.11
LWHMKPRRNLEEDDYLHKDTGETS | 4.54
LWNMKPRRNLEEDDYLHKDTGETS | 4.8
YWKMKPRRNLEEDDYLHKDTGETS | 4.26
VWKMKPRRNLEEDDYLHKDTGETS | 4.69
WWKMKPRRNLEEDDYLHKDTGETS | 4.18
LWKMKPKRNLEEDDYLHKDTGETS | 4.69
LWKMKPPRNLEEDDYLHKDTGETS | 4.62
LWKMKPGRNLEEDDYLHKDTGETS | 4.42
LWKMKPMRNLEEDDYLHKDTGETS | 4.51
LWKMKPQRNLEEDDYLHKDTGETS | 4.62
LWKMKPLRNLEEDDYLHKDTGETS | 4.4
LWKMKPYRNLEEDDYLHKDTGETS | 3.94
LWKMKPCRNLEEDDYLHKDTGETS | 4.26
LWKMKPHRNLEEDDYLHKDTGETS | 4.69
LWKMKPSRNLEEDDYLHKDTGETS | 4.58
LWKMKPFRNLEEDDYLHKDTGETS | 3.55
LWKMKPIRNLEEDDYLHKDTGETS | 4.26
LWKMKPNRNLEEDDYLHKDTGETS | 4.71
LWKMKPDRNLEEDDYLHKDTGETS | 5.25
LWKMKPTRNLEEDDYLHKDTGETS | 4.85
LWKMKPARNLEEDDYLHKDTGETS | 4.83
LWKMKPWRNLEEDDYLHKDTGETS | 4.07

Variant | protein stability index
LWKMKPERNLEEDDYLHKDTGETS | 4.47
LWKMKPVRNLEEDDYLHKDTGETS | 4.14
LHKMKPRRNLEEDDYLHKDTGETS | 4.96
LLKMKPRRNLEEDDYLHKDTGETS | 5
LIKMKPRRNLEEDDYLHKDTGETS | 5.05
LCKMKPRRNLEEDDYLHKDTGETS | 5.08
LPKMKPRRNLEEDDYLHKDTGETS | 5.49
LVKMKPRRNLEEDDYLHKDTGETS | 4.99
LMKMKPRRNLEEDDYLHKDTGETS | 4.78
LGKMKPRRNLEEDDYLHKDTGETS | 4.96
LAKMKPRRNLEEDDYLHKDTGETS | 5.25
LRKMKPRRNLEEDDYLHKDTGETS | 4.83
LKKMKPRRNLEEDDYLHKDTGETS | 4.78
LYKMKPRRNLEEDDYLHKDTGETS | 4.92
LQKMKPRRNLEEDDYLHKDTGETS | 5.31
LSKMKPRRNLEEDDYLHKDTGETS | 5.48
LTKMKPRRNLEEDDYLHKDTGETS | 5.22
LFKMKPRRNLEEDDYLHKDTGETS | 4.55
LNKMKPRRNLEEDDYLHKDTGETS | 4.82
LEKMKPRRNLEEDDYLHKDTGETS | 5.45
LDKMKPRRNLEEDDYLHKDTGETS | 5.62
LWKMKPRRNNEEDDYLHKDTGETS | 4.4
LWKMKPRRNAEEDDYLHKDTGETS | 4.86
LWKMKPRRNDEEDDYLHKDTGETS | 4.9

Variant | protein stability index
LWKMKPRRNHEEDDYLHKDTGETS | 4.22
LWKMKPRRNWEEDDYLHKDTGETS | 4.41
LWKMKPRRNGEEDDYLHKDTGETS | 4.02
LWKMKPRRNREEDDYLHKDTGETS | 4.24
LWKMKPRRNMEEDDYLHKDTGETS | 4.26
LWKMKPRRNPEEDDYLHKDTGETS | 4.86
LWKMKPRRNYEEDDYLHKDTGETS | 4.1
LWKMKPRRNEEEDDYLHKDTGETS | 4.89
LWKMKPRRNIEEDDYLHKDTGETS | 4.67
LWKMKPRRNQEEDDYLHKDTGETS | 4.72
LWKMKPRRNSEEDDYLHKDTGETS | 5.12
LWKMKPRRNVEEDDYLHKDTGETS | 4.34
LWKMKPRRNKEEDDYLHKDTGETS | 4.48
LWKMKPRRNCEEDDYLHKDTGETS | 3.9
LWKMKPRRNTEEDDYLHKDTGETS | 4.69
LWKMKPRRNFEEDDYLHKDTGETS | 4.24
LWKMKPRRLLEEDDYLHKDTGETS | 4.15
LWKMKPRRCLEEDDYLHKDTGETS | 3.81
LWKMKPRRHLEEDDYLHKDTGETS | 4.47
LWKMKPRRKLEEDDYLHKDTGETS | 4.44
LWKMKPRRGLEEDDYLHKDTGETS | 4.58
LWKMKPRRQLEEDDYLHKDTGETS | 4.41
LWKMKPRRSLEEDDYLHKDTGETS | 4.56
LWKMKPRRRLEEDDYLHKDTGETS | 4.23

Variant | protein stability index
LWKMKPRRYLEEDDYLHKDTGETS | 4.07
LWKMKPRRILEEDDYLHKDTGETS | 4.15
LWKMKPRRELEEDDYLHKDTGETS | 4.49
LWKMKPRRMLEEDDYLHKDTGETS | 4.36
LWKMKPRRFLEEDDYLHKDTGETS | 4.06
LWKMKPRRPLEEDDYLHKDTGETS | 4.11
LWKMKPRRALEEDDYLHKDTGETS | 4.41
LWKMKPRRWLEEDDYLHKDTGETS | 3.08
LWKMKPRRTLEEDDYLHKDTGETS | 4.49
LWKMKPRRDLEEDDYLHKDTGETS | 4.53
LWKMKPRRVLEEDDYLHKDTGETS | 4.18
LWKMKPRANLEEDDYLHKDTGETS | 4.61
LWKMKPRGNLEEDDYLHKDTGETS | 4.07
LWKMKPRSNLEEDDYLHKDTGETS | 4.43
LWKMKPRQNLEEDDYLHKDTGETS | 4.67
LWKMKPRNNLEEDDYLHKDTGETS | 4.53
LWKMKPRPNLEEDDYLHKDTGETS | 4.61
LWKMKPRCNLEEDDYLHKDTGETS | 3.79
LWKMKPRKNLEEDDYLHKDTGETS | 4.49
LWKMKPRFNLEEDDYLHKDTGETS | 3.93
LWKMKPRVNLEEDDYLHKDTGETS | 4.08
LWKMKPRENLEEDDYLHKDTGETS | 4.83
LWKMKPRINLEEDDYLHKDTGETS | 4.22
LWKMKPRYNLEEDDYLHKDTGETS | 4.04

Variant | protein stability index
LWKMKPRWNLEEDDYLHKDTGETS | 3.82
LWKMKPRDNLEEDDYLHKDTGETS | 4.74
LWKMKPRMNLEEDDYLHKDTGETS | 4.6
LWKMKPRLNLEEDDYLHKDTGETS | 4.03
LWKMKPRHNLEEDDYLHKDTGETS | 4.1
LWKMKPRTNLEEDDYLHKDTGETS | 4.47
LWKEKPRRNLEEDDYLHKDTGETS | 4.94
LWKGKPRRNLEEDDYLHKDTGETS | 4.86
LWKWKPRRNLEEDDYLHKDTGETS | 4.14
LWKTKPRRNLEEDDYLHKDTGETS | 4.62
LWKHKPRRNLEEDDYLHKDTGETS | 4.81
LWKQKPRRNLEEDDYLHKDTGETS | 4.95
LWKRKPRRNLEEDDYLHKDTGETS | 4.47
LWKPKPRRNLEEDDYLHKDTGETS | 4.41
LWKAKPRRNLEEDDYLHKDTGETS | 4.43
LWKIKPRRNLEEDDYLHKDTGETS | 4.36
LWKCKPRRNLEEDDYLHKDTGETS | 4.27
LWKSKPRRNLEEDDYLHKDTGETS | 4.69
LWKYKPRRNLEEDDYLHKDTGETS | 4.41
LWKDKPRRNLEEDDYLHKDTGETS | 5.16
LWKNKPRRNLEEDDYLHKDTGETS | 4.69
LWKFKPRRNLEEDDYLHKDTGETS | 3.99
LWKLKPRRNLEEDDYLHKDTGETS | 4.55
LWKKKPRRNLEEDDYLHKDTGETS | 4.19

Variant | protein stability index
LWKVKPRRNLEEDDYLHKDTGETS | 4.41
LWKMKVRRNLEEDDYLHKDTGETS | 3.96
LWKMKIRRNLEEDDYLHKDTGETS | 3.94
LWKMKARRNLEEDDYLHKDTGETS | 3.94
LWKMKWRRNLEEDDYLHKDTGETS | 3.16
LWKMKTRRNLEEDDYLHKDTGETS | 4.47
LWKMKQRRNLEEDDYLHKDTGETS | 3.94
LWKMKDRRNLEEDDYLHKDTGETS | 4.41
LWKMKERRNLEEDDYLHKDTGETS | 5.13
LWKMKCRRNLEEDDYLHKDTGETS | 3.52
LWKMKHRRNLEEDDYLHKDTGETS | 4
LWKMKSRRNLEEDDYLHKDTGETS | 4.57
LWKMKLRRNLEEDDYLHKDTGETS | 3.86
LWKMKKRRNLEEDDYLHKDTGETS | 4.1
LWKMKNRRNLEEDDYLHKDTGETS | 4.52
LWKMKGRRNLEEDDYLHKDTGETS | 4.42
LWKMKMRRNLEEDDYLHKDTGETS | 3.77
LWKMKYRRNLEEDDYLHKDTGETS | 3.96
LWKMKFRRNLEEDDYLHKDTGETS | 3.62
LWKMKRRRNLEEDDYLHKDTGETS | 3.65
